Legend:
[1] = Stability of reconstituted [18F]-FPPEGA in 1×PBS buffer; assay type: physicochemical; settings: 100% 1×PBS buffer, 37° C.
Protocol: An aqueous [^18F]-Fluoride solution (2.0 ml, 33.3 GBq/900 mCi) was purchased from P.E.T. Net® Pharmaceuticals in West Point Pa. and directly transferred to a Sep-Pak light QMA [The Sep-Pak light QMA cartridge was pre-conditioned sequentially with 5 ml of 0.5 M potassium bicarbonate, 5 ml of deionized water, and 5 ml of MeCN before use.] Upon completion of this transfer, the aqueous [^18F] fluoride was released from the QMA Sep-Pak by the sequential addition of potassium carbonate (15 mg/ml; 0.1 ml) followed by a mixture of potassium carbonate (30 mg/ml, 0.1 ml), 4,7,13,16,21,24-hexaoxa-1,10-diazabicyclo[8.8.8]hexacosane (15 mg, 0.04 mmol) and 1.2 ml of MeCN. The solvent was evaporated under a gentle stream of nitrogen at 90° C. and vacuum. Azeotropic drying was repeated twice with 1 ml portions of acetonitrile to generate the anhydrous K.2.2.2/K[^18F]F complex. […] The entire contents of the crude reaction mixture was then transferred, loaded and purified using reverse phase HPLC and the following conditions: HPLC Column: Luna C18 250×10 Solvent A: 0.1% TFA in DI water; solvent B: 0.1% TFA in acetonitrile at a flow rate of 4.6 ml/minute using isocratic method 32% B while the UV was monitored at 280 nm. […]

PD-L1 [2] = settings: cynomolgus monkeys
Protocol: Cynomolgus male monkeys with a previously installed vascular access port (VAP) were anesthetized with 0.02 mg/kg atropine, 5 mg/kg Telazol and 0.01 mg/kg buprenorphine I.M. (all drawn into a single syringe). An i.v. catheter is then placed in the cephalic vessel for fluid administration during the imaging procedure to maintain hydration. […] Anesthesia was maintained with isoflurane and oxygen and I.V. fluids (LRS) were administered at a rate of 6 ml/kg/hr during the imaging procedure. As the axial field of view of the microPET® F220™ instrument is only 7.6 cm, images over 5 distinct bed positions were acquired to create a composite image of the animals from just above the heart through approximately the pelvis.
For each field of view, a 10 minute transmission image was first acquired using a ^57Co point source for the purpose of attenuation correction of the final PET images. […] Once images were acquired at each position (1 through 5), the imaging bed was moved back to bed position 1 and the process was repeated. Using this procedure, a total of 5 distinct images were acquired for each bed position over the duration of the imaging study.
Individual images were reconstructed using a filtered back projection (FBP) algorithm with attenuation correction using the collected transmission images and corrected for radioisotope decay.

PD-L1 [3] = molecular target: T1, PD-L1 (Homo sapiens, UniProt Q9NZQ7); test: In vitro differentiation of PD-L1-positive from PD-L1-negative cells (cell-associated radioactivity, gamma counter); assay type: binding; parameters: PD-L1-positive L2987 human lung carcinoma cells or PD-L1-negative HT-29 human colorectal adenocarcinoma cells; endogenous in cells; host or cells: L2987 human lung carcinoma cells (HT-29 as PD-L1-negative control); settings: 1 hour on ice
Protocol: Portions of this solution were supplemented with either cold (unlabeled) […] or cold (unlabeled) […] (control) to a final concentration of 450 nM. […] After the incubation period, cell samples were centrifuged at 200×g and the supernatant was discarded. Cell pellets were resuspended in 1 mL PBS+0.5% BSA and the wash procedure repeated for a total of 3 washes. Following the final wash, cells were again centrifuged at 200×g and the supernatant was discarded. The radioactivity of the remaining cell pellets was then measured by gamma counter.

PD-L1 [4] = molecular target: T1, PD-L1; test: microPET imaging of mice bearing bilateral PD-L1(+) L2987 and PD-L1(−) HT-29 xenografts; assay type: in vivo; parameters: introducing 1×10^6 PD-L1(+) L2987 human lung carcinoma cells; endogenous in cells; host or cells: L2987 human lung carcinoma xenografts grown subcutaneously in mice; settings: co-injected with 3 mg/kg unlabeled A02 Adnectin, 1 hour 50 minutes - 2 h post injection
Excerpt: Mice bearing bilateral xenograft tumors were produced by introducing 1×10^6 PD-L1(+) L2987 human lung carcinoma cells and 1.5×10^6 PD-L1(−) HT-29 human colon carcinoma cells subcutaneously on opposite sides of the mouse. Once tumors reached approximately 300 mm^3 (approximately 2-3 weeks after cell implantation) animals were selected for imaging. For imaging, animals were placed under anesthesia with 2% isoflurane and tail vein catheters were installed. Mice were then placed into a custom animal holder with capacity for 4 animals, where they remained under anesthesia for the duration of the study. The animal holder was transferred to the microPET® F120™ scanner (Siemens Preclinical Solutions, Knoxville, Tenn.). […]
Following the transmission scan, radiotracer solutions were administered via the previously installed tail vein catheters and a 2 hour emission image was acquired. […] Exact injected doses were calculated by taking direct measurement of the formulated dose and subtracting the radioactivity remaining in the syringe and the tail vein catheter.
In the final images, regions of interest (ROIs) were drawn around the tumor boundary using ASIPro software (Siemens Preclinical Solutions). Time-activity curves were calculated for each ROI to yield a quantitative view of radiotracer within the tumor volume over the course of the 2 hour emission image. […]

PD-L1 [5] = molecular target: T1, PD-L1; test: Ex vivo tissue biodistribution by gamma counter in xenograft-bearing mice; parameters: introducing 1×10^6 PD-L1(+) L2987 human lung carcinoma cells; endogenous in cells; host or cells: L2987 human lung carcinoma xenografts grown subcutaneously in mice
Protocol: For some studies, animals were sacrificed via cervical dislocation immediately following imaging. Necropsy was then performed on the animals, and individual tissues were collected (blood, heart, lung, liver, spleen, kidney, muscle, stomach, bone, L2987 tumor, and HT-29 tumor) into pre-weighed tubes. All tissues were then weighed again to determine the weight of each tissue. The radioactivity in each tissue was then directly measured ex vivo using a Perkin-Elmer Wizard3 gamma counter. For all tissues, measured values in counts per minute (CPM) were normalized to the injected radioactive dose for the individual animals and corrected for radioactive decay.

T1 sequence (Q9NZQ7 19-290): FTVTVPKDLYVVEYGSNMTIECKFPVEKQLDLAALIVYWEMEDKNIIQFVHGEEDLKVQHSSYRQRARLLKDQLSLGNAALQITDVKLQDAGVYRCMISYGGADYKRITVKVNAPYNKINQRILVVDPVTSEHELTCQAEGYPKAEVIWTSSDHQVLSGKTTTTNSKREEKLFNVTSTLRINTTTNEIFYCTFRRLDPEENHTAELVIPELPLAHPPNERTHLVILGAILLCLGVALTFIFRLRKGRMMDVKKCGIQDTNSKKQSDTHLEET

[N-]=[N+]=NCCOCCOCCOCCOc1cccnc1[18F] [[^18F]-3-(2-(2-(2-(2-azidoethoxy)ethoxy)ethoxy)ethoxy)-2-fluoropyridine]
stable in this media [1]: over 1 hour

B1: ^18F-radiolabeled E01-4PEG-DBCO: E01 anti-PD-L1 Adnectin (SEQ ID NO: 1) linked via maleimide-PEG4-DBCO to [18F]-FPPEGA by click reaction (conjugate)
chain: GVSDVPRDLEVVAATPTSLLISWRAQLSPSFYYRITYGETGGNSPVQEFTVPNDVMTATISGLKPGVDYTITVYAVTTHGVYFYSPISINYRTPC
modifications: maleimide-PEG4-DBCO, 18F-FPPEGA label; Synthetic FBS protein, E01 Adnectin containing the C-terminal amino acids PC
notable radiotracer accumulation (tissues) (PD-L1 [2]; PET): mainly in the kidneys, spleen, and bladder | background levels / background accumulation in PET images (PD-L1 [2]; approx. 1.5 mCi (approx. 0.015 mg/kg) via VAP): very low | cell associated radioactivity in PD-L1-positive L2987 cells relative to PD-L1-negative HT-29 cells (PD-L1 [3]; 300 nCi/200 μL tracer): 44.6 ×

B2: E01 Adnectin: FBS protein, anti-PD-L1 Adnectin, SEQ ID NO: 1, cold (unlabeled) (protein)
chain: B1 chain
modifications: Synthetic FBS protein, E01 Adnectin containing the C-terminal amino acids PC
reduction in cell-associated ^18F-radiolabeled E01-4PEG-DBCO on co-incubation with cold adnectin (PD-L1 [3]; 450 nM cold (unlabeled) adnectin): 99.6%

B3: ^18F-radiolabeled A02: ^18F-radiolabeled PD-L1 Adnectin A02 (SEQ ID NO: 2) produced as described in Example 9 (conjugate)
chain: EVVAATPTSLLISWSYDGPIDRYYRITYGETGGNSPVQEFTVPPDQKTATISGLKPGVDYTITVYAVRLEEAHYNREFPISINYRTPC
modifications: PEG4-DBCO linker, 18F-FPPEGA label; Synthetic 18F-radiolabeled PD-L1 Adnectin, A02
radiotracer uptake in PD-L1(+) L2987 xenografts relative to PD-L1(−) HT-29 xenografts, blocked (PD-L1 [4]): 1.04 × | tissue with higher uptake than the PD-L1(+) tumor (PD-L1 [5]; ex vivo gamma counter): kidney | uptake in PD-L1(+) L2987 xenografts compared to PD-L1(−) HT-29 xenografts, ex vivo (PD-L1 [5]; necropsy immediately after imaging, gamma counter): clear differential uptake

— patent publication US11229713B2, “Methods and compositions for 18F-radiolabeling of biologics” (BRISTOL-MYERS SQUIBB COMPANY, priority 2014, dated 2022)
